Tests used:
[1] = molecular target: the molecule itself; experiment: SEC; size exclusion chromatography of purified recombinant OsIAD; column and buffer not told in the text shown (Supplementary Fig. 1c); dimer to monomers
purified protein = substrate: O=C(O)Cc1c[nH]c2ccccc12; experiment: purified protein; conditions: activated with 100 nM OsIADAE, 1 mM SAM, 0.2 mM Ti(III) citrate, 20 mM Tris-HCl pH 7.5, 0.1 M KCl, 30 °C, anaerobic

B1: Olsenella scatoligenes indoleacetate decarboxylase (OsIAD) (enzyme, UniProt A0A100YXA1 1-878, looked up)
chain: MQESLVLEMLQTGKTATWPANSGTQDGEGFVDKEVKGVPSTDRTKRMKERFMNAKCKMDMEAPIAYTKAWRMYEGKPLYVRRGLSYKYMLEHLTPVIRPDELITMSKTRYDRGATQVPQFATDFMISFLTQAEDQKDEAKLFSVEGKDEAHTVDEEGWTPVGQLFSIREEEVKPMLEVLEYWKTRCVENVSDEWMKTSFPMYQDYINAKKVGLFPGSGLHAGCDGRWIPAYDVVLGGLNKVIDECKKNIAKTVVTTKDVADKVFFWQGCIYACEGAIAWANNYAKEARRLAEITPEPRKTELLQMAERLERVPAEPPRNFMEAVQALWTAQILIISDSLALGVSPGRWGKLLEPYYEKDLADGVITKEQALEVMEMLRIKFSTEEYITPSLWAAMASSNSFMNLAVGGLDPKTGQCTDNELEDLILQAGINMPTPQPTLSMLLSNKTSDHLALKAAECTKAGNGYPAWFNYDMMVEHNLWCYADEGITMEDARNCALSGCVENGLAGTGHPIAHPAFYNEGKTIELALHEGVDPRTGIKVMDGIKPVESYEDVWNNFVKIREHFMRVYMRYWNEVVACQRDIHPKIMGSIFMHDCVENGRPVDNLGCRYNGSVTLLDSGTVNVVNGLAAMKKLIWEDHKYTYAEFKEAMDNNFGFVLGAEKGNFSMLNQEIDPEKHMKYAQIHRDILNCPKFGNDDDFVDDIFVKVWQDYDRVTGSETTYNGYRWITAALSISAHGPHGRVTGATPDGRLAGVTLCDGILSASPGTDVNGPIALIRSGVKLDPTTFASVQLNMKFHPSAIRGEEGSKNFVDFIRSYFNMGGYHVQFNIVDSKMLRDAQDKPQNYRDLMVRVAGFSAYWNELGKPIQDEVIARTEYDAL
notes: Indoleacetate decarboxylase (glycyl radical enzyme) of Olsenella scatoligenes, UniProt A0A100YXA1; codon-optimized synthetic gene in pET-28a-HT (His6-tag, TEV protease cleavage site, then the construct); also called HT-IAD; A0A100YXA1; source: E. coli BL21 (DE3), purified (TALON, ammonium sulfate precipitation, G25 desalting)
B1 was tested, and the “stoichiometry N” value [1] was 2, the Km (purified protein) was 370 ± 60 µM and the kcat (purified protein) was 2.0 ± 0.1 s^–1.

— publication PMC6181972, “Indoleacetate decarboxylase is a glycyl radical enzyme catalysing the formation of malodorant skatole” (Nature Communications, 2018)
